Measured values published in article PMC12751051, “Penaeus monodon fibrinogen-related lectin interacts with lipopolysaccharide and β-1,3-glucan binding protein to activate the innate immune system” (Biochemical Journal, 2025).

T1: recombinant Penaeus monodon lipopolysaccharide and β-1,3-glucan binding protein (Penaeus monodon, UniProt H9MER4 1-366)
T1 construct: The construct holds the protein's own N-terminus (signal peptide); also called rPmLGBP; PmLGBP; source: insect cell expression system (Bac-to-Bac baculovirus), purified (Ni-NTA); not shown: His6, C-terminal, kept
T1 sequence (looked up): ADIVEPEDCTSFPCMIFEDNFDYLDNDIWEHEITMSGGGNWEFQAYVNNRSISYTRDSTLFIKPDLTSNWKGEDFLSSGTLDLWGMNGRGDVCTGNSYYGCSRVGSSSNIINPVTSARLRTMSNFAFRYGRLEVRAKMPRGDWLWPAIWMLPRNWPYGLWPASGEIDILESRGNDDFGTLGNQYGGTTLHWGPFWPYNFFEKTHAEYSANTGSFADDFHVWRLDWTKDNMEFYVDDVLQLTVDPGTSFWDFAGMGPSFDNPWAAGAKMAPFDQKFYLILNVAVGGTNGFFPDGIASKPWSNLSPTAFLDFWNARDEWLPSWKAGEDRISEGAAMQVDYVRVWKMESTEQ


Legend:
rPmFREP CRD = target: T2, rPmFREP CRD (Penaeus monodon, UniProt A0A068LKH5); assay: GlcNAc-resin affinity column, elution with free GlcNAc, anti-His Western blot; format: binding; conditions: 8 ml GlcNAc resin; eluted with 100 mM GlcNAc; proteins loaded at 5 µM each; immobilised ligand
T2 construct: XEEL signal peptide, His6 tag; insect cells; lacks oligomeric structure

[1] = target: Penaeus monodon lipopolysaccharide and β-1,3-glucan binding protein (endogenous, hemolymph) (Penaeus monodon (endogenous in shrimp hemolymph))
[2] = target: recombinant Penaeus monodon lipopolysaccharide and β-1,3-glucan binding protein (Penaeus monodon) (UniProt H9MER4); assay: BLI; BLItz; rPmLGBP immobilised on Octet SA biosensor activated with EDC and NHS; analytes in 20 mM HEPES pH 7.5, 150 mM NaCl, 10 mM CaCl2; association 4 minutes, dissociation 4 minutes; curves globally fitted
[3] = target: T1, recombinant Penaeus monodon …; assay: as above; conditions: both partners purified
[4] = target: T1, recombinant Penaeus monodon …; assay: curdlan binding assay; rPmFREP and rPmLGBP, 0.1 µM each, incubated with 1 mg curdlan in 20 mM HEPES pH 7.5, 150 mM NaCl, 10 mM CaCl2, 4°C, 16 hours; curdlan collected by centrifugation, washed three times, eluted with 2% SDS; anti-His Western blot, densitometry of rPmFREP; conditions: both partners purified

Molecule	GlcNAc-resin affinity column, elution with free GlcNAc, anti-His Western blot (rPmFREP CRD)	PO activity in hemolymph of shrimp injected with the recombinant protein (1 nmol/g shrimp) and then infected with VP AHPND, against rMBP-injected control shrimp [1]	Kd [2]	Kd [3]	fold more rPmFREP in the curdlan elution fraction with rPmLGBP than without it [4]
CC(=O)N[C@H]1C(O)O[C@H](CO)[C@@H](O)[C@@H]1O (stereo partly drawn) [N-acetylglucosamine]	rPmFREP and rPmFREP CRD were bound to the GlcNAc column	–	–	–	–
rPmFREP CC-MBP (domain or fragment)	–	3 fold	220 nM	–	–
recombinant Penaeus monodon fibrinogen-related protein (natural protein, UniProt A0A068LKH5 1-312, looked up, also called rPmFREP; PmFREP; source: insect cell expression system (baculovirus), purified (Ni-NTA)) TTERTDTAEPQQPGGCHALPSLLQSAGSSLTCIAASLINCQANENDQLSIAQDLRDTMSEVRRAIVDAERRRRRPRHCRDLQLDGDSESGVRRVFPFRSSPDAAATVYCDQETDGGGWTVFQRRLKLPVREDFYRTWVEYELGFGHMDGGEFWLGLDLVHRLTSTGLQEMRIDLTDYEDNAKWAKYGVFHLGDASTKYRLKVGRYNGTAGDGFGSGRHDGHPFTTHDNDNDGDGANCAARYRGAWWYDKCHISNLNGFPYEGDHESYADGIEWQPWRGYHYSLKTTTMMIRPAF	–	3.4 fold	–	340 nM	~3.1 fold
